{"source": "paper PMC5737116", "about": "“Biochemical Properties of Human D-Amino Acid Oxidase” (Frontiers in Molecular Biosciences, 2017)", "details_in_all_cases": "other: apparent, 21% oxygen saturation, pH 8.5, 25°C", "key": {"N[C@@H]1CON=C1O": {"test_system": "T1, N[C@@H]1CON=C1O", "T1 construct": "made in house; host or cells: E. coli", "assay": "Oxygen-consumption activity assay, apparent kinetic parameters (substrate specificity)", "assay_type": "biochemical, human"}, "N[C@H](CS)C(=O)O": {"test_system": "T2, N[C@H](CS)C(=O)O", "T2 construct": "made in house; host or cells: E. coli", "assay": "Oxygen-consumption activity assay, apparent kinetic parameters (substrate specificity)", "assay_type": "biochemical, human"}, "[1]": {"test_system": "N[C@H](Cc1ccc(O)c(O)c1)C(=O)O", "assay": "purified protein, by the assay type"}}, "data": [{"substance": "human DAAO (Homo sapiens)", "values": [{"measurement": "Km", "setting": "N[C@@H]1CON=C1O", "value": "83.5 ± 15.0", "unit": "mM"}, {"measurement": "kcat", "setting": "N[C@@H]1CON=C1O", "value": "0.77 ± 0.05", "unit": "s⁻¹"}, {"measurement": "kcat/Km", "setting": "N[C@@H]1CON=C1O", "value": 9, "unit": "M⁻¹ s⁻¹"}, {"measurement": "Km", "setting": "N[C@H](CS)C(=O)O", "value": "0.6 ± 0.1", "unit": "mM"}, {"measurement": "kcat", "setting": "N[C@H](CS)C(=O)O", "value": "8.6 ± 0.2", "unit": "s⁻¹"}, {"measurement": "kcat/Km", "setting": "N[C@H](CS)C(=O)O", "value": 14600, "unit": "M⁻¹ s⁻¹"}, {"measurement": "Km", "setting": "[1]", "value": 6, "unit": "mM"}, {"measurement": "kcat", "setting": "[1]", "value": "40.5 ± 5.1 [21.7]^d s^−1"}, {"measurement": "kcat/Km", "setting": "[1]", "value": "6.75 [14.4]^d mM^−1 x s^−1"}]}]}
